Laboratory results as given in patent US20250051460A1.

Biological target: human VEGF-A (human) (UniProt P15692)
Assay: cell-based or functional assay

human VEGF-A (human), sequence (P15692 other isoform, or with tags, fused parts or gaps limits assumed): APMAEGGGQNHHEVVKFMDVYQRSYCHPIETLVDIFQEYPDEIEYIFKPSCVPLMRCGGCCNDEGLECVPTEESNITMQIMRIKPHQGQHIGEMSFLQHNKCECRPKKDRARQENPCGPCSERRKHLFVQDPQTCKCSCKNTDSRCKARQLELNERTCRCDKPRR
EYLEA (aflibercept) (Fc fusion), sequence (chain): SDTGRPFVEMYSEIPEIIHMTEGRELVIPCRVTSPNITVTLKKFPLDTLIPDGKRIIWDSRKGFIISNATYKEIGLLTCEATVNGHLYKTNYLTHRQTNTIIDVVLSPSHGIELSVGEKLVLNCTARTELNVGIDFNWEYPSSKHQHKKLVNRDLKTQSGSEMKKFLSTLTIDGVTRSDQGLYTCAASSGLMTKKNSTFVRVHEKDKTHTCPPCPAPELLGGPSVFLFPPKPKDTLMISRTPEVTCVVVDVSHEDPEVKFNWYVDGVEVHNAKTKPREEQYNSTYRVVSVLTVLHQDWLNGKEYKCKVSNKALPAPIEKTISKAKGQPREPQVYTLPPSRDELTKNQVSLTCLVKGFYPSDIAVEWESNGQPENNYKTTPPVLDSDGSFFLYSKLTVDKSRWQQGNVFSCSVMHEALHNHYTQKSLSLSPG

ERK1/2 phosphorylation: Bottom plateau (AlphaLISA counts) (AlphaLISA counts): 21700
ERK1/2 phosphorylation: Top plateau (AlphaLISA counts) (AlphaLISA counts): 109000
HRMEC proliferation, delta area under the curve vs. basal: Top plateau (arbitrary units) (arbitrary units): 129
HRMEC proliferation: Bottom plateau (arbitrary units) (arbitrary units): 13.3
HRMEC proliferation: IC50 (pM): 171 pM
HRMEC proliferation: LogIC50: -9.77
IC50 (p38 MAPK phosphorylation): 0.74 nM
Src phosphorylation (Y419): Bottom plateau (AlphaLISA counts) (AlphaLISA counts): 2210
Src phosphorylation (Y419): IC50: 0.933 nM
Src phosphorylation (Y419): LogIC50: -9.37
Src phosphorylation (Y419): Top plateau (AlphaLISA counts) (AlphaLISA counts): 3420
inhibition of VEGF-induced HRMEC proliferation: 16 nM
p38-MAPK phosphorylation (T180/Y182): Bottom plateau (AlphaLISA counts) (AlphaLISA counts): 8890
p38-MAPK phosphorylation (T180/Y182): IC50: 0.748 nM
p38-MAPK phosphorylation (T180/Y182): LogIC50: -9.13
p38-MAPK phosphorylation (T180/Y182): Top plateau (AlphaLISA counts) (AlphaLISA counts): 23100
Substance: EYLEA (aflibercept) (Fc fusion)
